Measured values as given in the RNAGym collection of RNA variant scans (doi:10.1073/pnas.2313332121).

B1: TPR t1 (parent)
chain: GACCAAUCUGCCCUCAGAGCUCGAGAACAUCUUCGGAUGCAGAGGAGGCAGGCUUCGGUGGCGCGAUAGCGCCAACGUCCUCAACCUCCAAUGCAUCCCACCACAUGAUGAUGCCUGAAGAGCCUUGGUUUUUUG

Variants of: B1
Experiment: polymerase ribozyme fitness, log enrichment relative to wild type (log ratio); higher = more active; in vitro selection for triplet polymerase activity
How it was run: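 Genotype fitness is the logarithm of its enrichment divided by wild-type enrichment, using inverse-variance-weighted averages of replicates. That logarithm is base 2. Enrichment was measured by Illumina sequencing of input and output libraries from one triplicate in vitro selection round, with frozen incubation at −7 °C, on PCR-built, transcribed mutant libraries of each subunit of a heterodimeric triplet polymerase ribozyme, retaining genotypes with ≥10 input reads and ≥1 read per output.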

Variant	polymerase ribozyme fitness (log ratio)
C12U C72U U81G	-3.47
C13A G44A G127C U131C	-2.25
C13A G60A	-1.95
C12U C20A C28U A37G G42A G45U A46U G48A C82U G110A A111U A119G	-4.23
C12G U14G G52C G61A C82A C88A A118U	-2.32
C12G C73G C88G	-1.78
C12U C20G A43C G48A C62U	-6.08
C13A G44U C72U U78C G128A	-6.14
C12U G63U C85G C88A	-4.33
C12U C13U U38C C40A A91U	-3.21
C12G C82U A105U U106A U109G	-1.76
C12U C15U U38C A43C C123A	-1.45
C12U A46C C53G G71C A84C A95C	-2.46
C12U G25A G93C G120C	-7.38
C12G C13A G45C C56U	-1.27
C12G C49A G63U C72U C89A	-3.61
C13A C72G A83G A121U C123U	-0.305
C12G U14A	-1.56
C13G C20U	-2.34
C12G C40G	-1.2
C13A A18G C73A	-4.96

Variant	polymerase ribozyme fitness (log ratio)
C13A U78A	-2.18
C12U A111G	0.95
C12U A111U	-2.01
C13G C20U C64U C104A A111U U130G	-5.67
C12G G39U G60U C80G C123U	-4.73
C13A C20U G61U	-2.05
C13A C15U G44A C49U C73U C89A	-4.76
C12G C62U U116A	-2.68
C13A C20U U38A A91U C124G	-1.87
C12G C56A C70G	-3.89
C12U C15G C79A C85G G120A	-2.63
C12G G65A	-3.6
C13A G48A C114U U129A	-5.75
C12G C15U	-0.505
C12A U130A	-2.22
C13A G48A U109A G120C	-5.29
C12U G69C U81C G110U	-3.57
C12G U33G C70U U87G A118U U125A	-5.53
C13A C20U G61U C72U	-3.24
C12U C56A G69A U129A	-5.35
C13A G61U U92C C114A	-3.9

Variant	polymerase ribozyme fitness (log ratio)
C13G C22U G63U C79U G122A	-7.09
C12G C89U	-0.711
C12G A46C C101U U132C	-1.45
C13A C56U U59A	-2.77
C12G C13U	-0.223
C12U G17C G71A C97G C115G	-4.83
C12U A46U C49U G63C A90C	-4.26
C13A A43U G60C C88A	-4.2
C13A G57A G127C	-3.7
C12G G42A G52A C62U C104A	-5.44
C12U C104U	0.248
C12U A66G A74U	-1.17
C12U C31U G77U U87C C123U	-3.57
C13A A43C A83G C102A G110A U129C	-6.67
C13A A18C	-4.69
C12G C20U C72U G117U	-2.78
C12U A83C	0.0344
C12U G39U G113U U116G	-5.84
C13A U87A U106A	-2.48
C12U C34A C53U C72U	-2.62
C13A G120U	-0.457

Variant	polymerase ribozyme fitness (log ratio)
C12U C20U U96C	-0.583
C12U C49G G61C	-1.89
C12U A108G U130A	-3.19
C13A A43C G44A G77A A83U	-4.05
C12G G48A G60A G93A	-1.03
C12G A27G	-1.67
C13G A46U	-2.39
C12G C72A C104U C123U C124A	1.79
C13G A74C	-2.12
C13G A83C C94G A119U C123G G127C G135U	-3.17
C12U G51A U78C	-2.26
C12U A27G G47A G51A G58A G61C A103G A121G	-7.4
C12G C15G G45A G61C	-4.58
C12U G25U	-6.45
C12G C88U A105U C123A	-0.335
C12U U112G	0.735
C12U C72U C104A U125G	-1.99
C12G G36U U132A	-1.56
C12U G42U G77U G117U U126C	-1.93
C12U A100U	-0.242
